Biological target: T1, Myc-tagged NLRP6 (ΔPYD)
T1 chain: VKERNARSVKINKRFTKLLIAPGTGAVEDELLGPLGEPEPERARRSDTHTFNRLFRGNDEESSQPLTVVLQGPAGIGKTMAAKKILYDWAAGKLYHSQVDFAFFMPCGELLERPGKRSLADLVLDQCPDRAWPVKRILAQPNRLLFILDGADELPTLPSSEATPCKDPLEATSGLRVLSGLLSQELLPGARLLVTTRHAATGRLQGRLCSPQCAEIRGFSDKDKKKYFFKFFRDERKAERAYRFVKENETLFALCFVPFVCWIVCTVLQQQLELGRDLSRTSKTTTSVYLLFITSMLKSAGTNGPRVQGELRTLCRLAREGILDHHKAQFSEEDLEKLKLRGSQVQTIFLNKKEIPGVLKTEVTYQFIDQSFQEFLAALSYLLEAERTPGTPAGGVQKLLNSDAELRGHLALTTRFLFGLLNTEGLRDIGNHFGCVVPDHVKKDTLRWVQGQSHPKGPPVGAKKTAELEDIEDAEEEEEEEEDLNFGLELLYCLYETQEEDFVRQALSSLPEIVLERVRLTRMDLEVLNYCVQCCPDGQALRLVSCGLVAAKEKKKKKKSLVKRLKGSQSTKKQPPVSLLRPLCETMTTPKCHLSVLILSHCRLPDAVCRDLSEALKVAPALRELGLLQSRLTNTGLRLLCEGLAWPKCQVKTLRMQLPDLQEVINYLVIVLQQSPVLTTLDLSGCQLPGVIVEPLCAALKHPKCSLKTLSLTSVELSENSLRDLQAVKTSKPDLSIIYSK

B1: FLAG-tagged iTie (natural protein)
chain: MGVFQILMKNKELIPLAFFISVAATGATSFALYALKKTDVVIDRKRNPEPWEMVDPTQPQKLITINQQWKPVEELQKVRRATR
Kd: 88 nM
